The source of these data is US20230340054A1.

For this test, the target named is IL-2 receptor on the cell surface (high and intermediate affinity receptors on human PBMC subsets). The test is described as follows: cell-based or functional assay.

Take IgG fusion IL-2 mutein D20N: the pSTAT5α levels in CD4+ cells worked out at 2.23 and the pSTAT5α levels in CD8+ cells came out at 1.5.

In turn, IgG fusion IL-2 mutein D20T yielded a pSTAT5α levels in CD4+ cells of 1.46 and a pSTAT5α levels in CD8+ cells of 1.7.

The substance IgG fusion IL-2 mutein D84E registered a pSTAT5α levels in CD4+ cells of 1.61 and a pSTAT5α levels in CD8+ cells of 0.957.

With IgG fusion IL-2 mutein D84S, the pSTAT5α levels in CD4+ cells was 1.2 and the pSTAT5α levels in CD8+ cells was 1.05.

The substance IgG fusion IL-2 mutein D84T registered a pSTAT5α levels in CD4+ cells of 1.21 and a pSTAT5α levels in CD8+ cells of 0.96.

Turning to IgG fusion IL-2 mutein D109H, the pSTAT5α levels in CD4+ cells was 1.01 and the pSTAT5α levels in CD8+ cells came out at 1.1.

IgG fusion IL-2 mutein D109K: the pSTAT5α levels in CD4+ cells is 1.77 and the pSTAT5α levels in CD8+ cells was 1.32.

IgG fusion IL-2 mutein D109M registered a pSTAT5α levels in CD4+ cells of 1.28 and a pSTAT5α levels in CD8+ cells of 0.906.

For the substance IgG fusion IL-2 mutein D109R, the pSTAT5α levels in CD4+ cells is 1.77 and the pSTAT5α levels in CD8+ cells is 1.27.

Regarding IgG fusion IL-2 mutein D109W, the pSTAT5α levels in CD4+ cells stood at 1.53 and the pSTAT5α levels in CD8+ cells stood at 1.05.

Take IgG fusion IL-2 mutein E15D: the pSTAT5α levels in CD4+ cells stood at 1.09 and the pSTAT5α levels in CD8+ cells turned out to be 1.01.

On to IgG fusion IL-2 mutein E15S, for which the pSTAT5α levels in CD4+ cells was found to be 1.66 and the pSTAT5α levels in CD8+ cells was 0.932.

Turning to IgG fusion IL-2 mutein E15T, the pSTAT5α levels in CD4+ cells amounted to 3.06 and the pSTAT5α levels in CD8+ cells turned out to be 1.79.

For the substance IgG fusion IL-2 mutein E61W, the pSTAT5α levels in CD4+ cells worked out at 1.3 and the pSTAT5α levels in CD8+ cells came to 1.18.

As to IgG fusion IL-2 mutein E68F, the pSTAT5α levels in CD4+ cells was determined as 2.19 and the pSTAT5α levels in CD8+ cells was found to be 0.946.

The substance IgG fusion IL-2 mutein E68L yielded a pSTAT5α levels in CD4+ cells of 2.01 and a pSTAT5α levels in CD8+ cells of 1.16.

As for IgG fusion IL-2 mutein E68Q, the pSTAT5α levels in CD4+ cells came out at 2 and the pSTAT5α levels in CD8+ cells stood at 1.4.

For the substance IgG fusion IL-2 mutein E68R, the pSTAT5α levels in CD4+ cells came out at 2.36 and the pSTAT5α levels in CD8+ cells was found to be 1.22.

In turn, IgG fusion IL-2 mutein E68W displayed a pSTAT5α levels in CD4+ cells of 1.96 and a pSTAT5α levels in CD8+ cells of 0.997.

The substance IgG fusion IL-2 mutein E68Y had a pSTAT5α levels in CD4+ cells of 2.6 and a pSTAT5α levels in CD8+ cells of 1.28.

In turn, IgG fusion IL-2 mutein E95D gave a pSTAT5α levels in CD4+ cells of 1.62 and a pSTAT5α levels in CD8+ cells of 1.02.

The substance IgG fusion IL-2 mutein E95N gave a pSTAT5α levels in CD4+ cells of 0.981 and a pSTAT5α levels in CD8+ cells of 1.05.

Consider IgG fusion IL-2 mutein E95Q, for which the pSTAT5α levels in CD4+ cells was 1.56 and the pSTAT5α levels in CD8+ cells is 1.05.

In the case of IgG fusion IL-2 mutein E95S, the pSTAT5α levels in CD4+ cells is 1.47 and the pSTAT5α levels in CD8+ cells turned out to be 1.

Take IgG fusion IL-2 mutein E95T: the pSTAT5α levels in CD4+ cells came to 1.64 and the pSTAT5α levels in CD8+ cells was determined as 1.02.

For the substance IgG fusion IL-2 mutein E106W, the pSTAT5α levels in CD4+ cells stood at 1.02 and the pSTAT5α levels in CD8+ cells stood at 1.18.

IgG fusion IL-2 mutein F42M gave a pSTAT5α levels in CD4+ cells of 1.98 and a pSTAT5α levels in CD8+ cells of 1.18.

IgG fusion IL-2 mutein H16K: the pSTAT5α levels in CD4+ cells was 1.05 and the pSTAT5α levels in CD8+ cells stood at 1.09.

The substance IgG fusion IL-2 mutein H16R showed a pSTAT5α levels in CD4+ cells of 1.4 and a pSTAT5α levels in CD8+ cells of 1.63.

Substance IgG fusion IL-2 mutein H16Y yielded a pSTAT5α levels in CD4+ cells of 1.75 and a pSTAT5α levels in CD8+ cells of 1.21.

With IgG fusion IL-2 mutein I92F, the pSTAT5α levels in CD4+ cells was found to be 1.77 and the pSTAT5α levels in CD8+ cells was found to be 1.2.

In turn, IgG fusion IL-2 mutein I92V gave a pSTAT5α levels in CD4+ cells of 0.981 and a pSTAT5α levels in CD8+ cells of 1.08.

IgG fusion IL-2 mutein I92W yielded a pSTAT5α levels in CD4+ cells of 1.11 and a pSTAT5α levels in CD8+ cells of 0.986.

On to IgG fusion IL-2 mutein I92Y, for which the pSTAT5α levels in CD4+ cells stood at 1.94 and the pSTAT5α levels in CD8+ cells stood at 1.12.

IgG fusion IL-2 mutein K35T yielded a pSTAT5α levels in CD4+ cells of 2.39 and a pSTAT5α levels in CD8+ cells of 1.19.

Regarding IgG fusion IL-2 mutein K43W, the pSTAT5α levels in CD4+ cells was 1.24 and the pSTAT5α levels in CD8+ cells is 1.16.

IgG fusion IL-2 mutein K48I: the pSTAT5α levels in CD4+ cells came to 0.944 and the pSTAT5α levels in CD8+ cells is 0.868.

The substance IgG fusion IL-2 mutein K48S had a pSTAT5α levels in CD4+ cells of 2.23 and a pSTAT5α levels in CD8+ cells of 1.16.

IgG fusion IL-2 mutein K48V had a pSTAT5α levels in CD4+ cells of 1.12 and a pSTAT5α levels in CD8+ cells of 1.18.

Take IgG fusion IL-2 mutein L12I: the pSTAT5α levels in CD4+ cells is 2.35 and the pSTAT5α levels in CD8+ cells worked out at 1.59.

IgG fusion IL-2 mutein L12V came in with a pSTAT5α levels in CD4+ cells of 1.64 and a pSTAT5α levels in CD8+ cells of 1.03.

Regarding IgG fusion IL-2 mutein L12Y, the pSTAT5α levels in CD4+ cells amounted to 1.3 and the pSTAT5α levels in CD8+ cells is 1.01.

In turn, IgG fusion IL-2 mutein L19F displayed a pSTAT5α levels in CD4+ cells of 1.49 and a pSTAT5α levels in CD8+ cells of 1.06.

The substance IgG fusion IL-2 mutein L19I yielded a pSTAT5α levels in CD4+ cells of 2.22 and a pSTAT5α levels in CD8+ cells of 1.04.

IgG fusion IL-2 mutein L19V displayed a pSTAT5α levels in CD4+ cells of 1.31 and a pSTAT5α levels in CD8+ cells of 0.953.

With IgG fusion IL-2 mutein L72F, the pSTAT5α levels in CD4+ cells turned out to be 1.65 and the pSTAT5α levels in CD8+ cells was 0.939.

In turn, IgG fusion IL-2 mutein L72R returned a pSTAT5α levels in CD4+ cells of 1.6 and a pSTAT5α levels in CD8+ cells of 0.93.

Regarding IgG fusion IL-2 mutein M23I, the pSTAT5α levels in CD4+ cells was 1.83 and the pSTAT5α levels in CD8+ cells came to 1.16.

On to IgG fusion IL-2 mutein M23L, for which the pSTAT5α levels in CD4+ cells stood at 1.91 and the pSTAT5α levels in CD8+ cells was 1.05.

IgG fusion IL-2 mutein M104H returned a pSTAT5α levels in CD4+ cells of 1.01 and a pSTAT5α levels in CD8+ cells of 0.989.

For IgG fusion IL-2 mutein M104I, the pSTAT5α levels in CD4+ cells worked out at 1.25 and the pSTAT5α levels in CD8+ cells came out at 0.851.

IgG fusion IL-2 mutein N71W returned a pSTAT5α levels in CD4+ cells of 1.58 and a pSTAT5α levels in CD8+ cells of 1.02.

IgG fusion IL-2 mutein N88S came in with a pSTAT5α levels in CD4+ cells of 1.2 and a pSTAT5α levels in CD8+ cells of 1.04.

With IgG fusion IL-2 mutein P34F, the pSTAT5α levels in CD4+ cells was 2.85 and the pSTAT5α levels in CD8+ cells was 1.88.

Regarding IgG fusion IL-2 mutein P34W, the pSTAT5α levels in CD4+ cells turned out to be 1.89 and the pSTAT5α levels in CD8+ cells is 1.1.

Consider IgG fusion IL-2 mutein P34Y, for which the pSTAT5α levels in CD4+ cells is 1.11 and the pSTAT5α levels in CD8+ cells stood at 1.29.

For IgG fusion IL-2 mutein P65E, the pSTAT5α levels in CD4+ cells was found to be 1.51 and the pSTAT5α levels in CD8+ cells was 1.05.

As to IgG fusion IL-2 mutein P65K, the pSTAT5α levels in CD4+ cells is 1.59 and the pSTAT5α levels in CD8+ cells was 1.31.

Consider IgG fusion IL-2 mutein P65N, for which the pSTAT5α levels in CD4+ cells was 1.71 and the pSTAT5α levels in CD8+ cells is 1.07.

As to IgG fusion IL-2 mutein P65Q, the pSTAT5α levels in CD4+ cells amounted to 1.6 and the pSTAT5α levels in CD8+ cells was 1.13.

In the case of IgG fusion IL-2 mutein P65R, the pSTAT5α levels in CD4+ cells worked out at 1.67 and the pSTAT5α levels in CD8+ cells stood at 1.15.

IgG fusion IL-2 mutein S87E showed a pSTAT5α levels in CD4+ cells of 1 and a pSTAT5α levels in CD8+ cells of 0.825.

The substance IgG fusion IL-2 mutein S87T had a pSTAT5α levels in CD4+ cells of 2 and a pSTAT5α levels in CD8+ cells of 1.07.

IgG fusion IL-2 mutein T111H: the pSTAT5α levels in CD4+ cells turned out to be 1.9 and the pSTAT5α levels in CD8+ cells was found to be 1.14.

IgG fusion IL-2 mutein T111M came in with a pSTAT5α levels in CD4+ cells of 1.74 and a pSTAT5α levels in CD8+ cells of 1.23.

As for IgG fusion IL-2 mutein T111N, the pSTAT5α levels in CD4+ cells amounted to 1.64 and the pSTAT5α levels in CD8+ cells was found to be 1.08.

IgG fusion IL-2 mutein T111Q registered a pSTAT5α levels in CD4+ cells of 2.1 and a pSTAT5α levels in CD8+ cells of 1.28.

IgG fusion IL-2 mutein T111S displayed a pSTAT5α levels in CD4+ cells of 2.47 and a pSTAT5α levels in CD8+ cells of 1.24.

On to IgG fusion IL-2 mutein T111W, for which the pSTAT5α levels in CD4+ cells amounted to 1.58 and the pSTAT5α levels in CD8+ cells stood at 1.15.
